Measurements published in US20110312897A1 (ROCKEFELLER UNIVERSITY, published 2011).
Where no end group is shown, it is not given here.

Biological target: T1, cleaved H3 tail peptide (H3 22-37), methylated at K27 (not fully specified; also: K27 methylated, degree not given here, biotinylated, site not given here)
T1 construct: Mimics the H3 tail after cleavage between A21 and T22; also called cleaved peptide (amino acid residues 22-37)
T1 peptide: TKAARK(Me)SAPATGGVKK
Assay: fluorescence anisotropy

B1: chromodomain of mouse CBX7 (other, UniProt Q8VDS3 1-70, looked up)
chain: MELSAIGEQVFAVESIRKKRVRKGKVEYLVKWKGWPPKYSTWEPEEHILDPRLVMAYEEKEERDRASGYR
notes: domain: chromodomain; also called Cbx7-CD protein; chromodomain of Pc (mouse CBX7)
Question: How did the “fold decrease of binding against the non-cleaved peptide (residues 18-37)” value turn out when B1 was run?
Answer: 3 fold
